# Results as given in the domain aggregation screens of Martell et al. (2025).
# Assay: soluble fraction after stress (log2 fold change); higher = more stays soluble; pooled small domains, quantitative proteomics
# Conditions: stress: 50 degC
# How it was run: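 Quantitative proteomics served as the high-throughput read-out for pooled custom libraries of small protein domains. Each was stressed at 50°C. Aggregation propensity is expressed as the base-two log fold change in soluble protein after stress. A higher value means a larger share of the protein remains in solution.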
row,Sequence,soluble fraction (log2)
1,HMNINLDINTYTVKELEKLLKLEVPYSDNNVFEKKNLMVKMIQTSTIAETKKEELYIFLDNIYNRLTNNLE,-1.35
2,HMNISLGALVTITDQKGRSHTVTLESGKQFFTNHGSINHDEIIKAGEGGVVASSSGMLYTIFTP,-0.836
3,HMNISRESLIGQILATLNKNPEEGFNYKQIAKRLNITDSPGRQMISDLLRELSKHGSLQEISHGKYKIKV,-0.226
4,HMNITHEINVKSKSKIDFLENNKNLAQFFLTKNPNQFNYNLVFSDKSELNIIKEKIESHKDIEDIDIRYG,0.0125
5,HMNIVINVDTPTFEQMKATYQAPGTLPAGASFHAKLKGVTVTGYTKSHKVMFQGALANQEAARWQ,-0.92
6,HMNIYFNIEDAVANAVVENGKMSAAIYEKNVDTGEVAKLAEVSMPVMGGNINITKTLLTKALISQLP,-0.384
7,HMNKAYLTVADMKKDKSLKNGDVVRTLGYYGYNDGDGAVYQIKDSHPEDYHIRLDNGLDAEQINY,0.012
8,HMNKEHINLDSSKFLSLLNKTKISMSNDETRHYLNGIYIHPTVSNKSSYLTGVATDSHRLSSSSIPVD,0.121
9,HMNKMIIELGEKLKALRTENHLRQDQVARLVNVEKSSISMYETGMRQPSYTTLVRLADVFNVTTDYLLGRK,-2.24
10,HMNKPTSMYKLRLLLKHYHAGASKRWMADVLDISRSTLNVYLARIESLNLAFEEWEALSDLEVSRLLINP,-3.05
11,HMNKVAQFYRELVSTLSERLRNGERDIDALVEQARVRISQSGELTQSEIENVIRAVRRDLEEFALSYEE,0.0926
12,HMNLAISAYQQLKSDIIRGVYAPGEKLLMSRLKVRYGLGIGPMREALSQLVSEHLVTAASQRGYRVAGM,-1.64
13,HMNLAPLLTEYVQINFRRASEMKTYLEQANLISERGFLLADDQTNILMVRETGASIEEIRRTLNRF,-1.77
14,HMNLFKAPMPGLIRTIVVAEGQEVKKGDVILILEAMKMENALKSPADLVVKSIKVQQGQAVEKNQLLIEF,-0.0526
15,HMNLGNLLKIYRKNSLLTQQQVADALNINRTTYTYYETGKTEPSIDTLHKLIKIFGITYDDLL,-2.7
16,HMNLKDINLNVRHYKIIDFVREHGYASIETLTRQFGVSAQTVRRDIIYLDNQAVLKRHHGGVGTLPG,-1.99
17,HMNLPTSGVDALTPAERRVARMAGDGQSNREIAQTLFVTRKTVEIHLTSVYRKLGIASRAELSARL,-2.6
18,HMNLQGIISQKAIVTQTIEPYETGVAKLNGEEWTAMSKDETRIEAGKLVEVVAIEGVKLIVKEVS,-0.0794
19,HMNLVELKHAEEFNTLIIQDIGGRMKPAHTLASELVRKVFHNDDFNGIDPRKVFLSIIENSKVWFNVPFI,0.119
20,HMNLYENLATHVKNAIRQGVYQPGDRLPSVRRLSEQHRVSQNTAVSAYRLLESHGWLEARPQSGFFARHP,-1.11
21,HMNLYERFPIHELWKETFNETLDEEEHITFITSEFKPENIVLGQGFIAAPSKKDAVDWLKVIRTVLIFYDS,-0.941
22,HMNMANFARIRLILELHDRGMSQDEISRSRHMSRSTITTVLRTARKKGITYAGIRKLDDAALQKLFFPDR,-3.88
23,HMNMDLGHSISKLRTDANLTQEKFAQILNVSRQTVQKWEYGEALPDIHNIIKIAKFFNISLDALVLRS,-0.159

row,Sequence,soluble fraction (log2)
1,HMNMIGDVIRNLRTVSSMTQTELGQRMGVIKQTISNWEKNISTPSIDAIVKLSSIFNVPTDYLL,-1.06
2,HMNMMESNLFAVYDNDDIVKTLRQGAMEIDSLIRLMGKSSAEVLEKLTTMELQGIITRSGNIIALNN,-0.064
3,HMNMNDIKFGKYLKRVRKKYNFSKEYVANILKVKESLVSDWESGRLTLNDEYMEKLSLFYGVNLYKK,-0.863
4,HMNMPDVTVEWVKEQQAKFGLTDSDLAKSVNIDNANLARIFNQRGLTKIHKALFYYFFRAYGLQ,-2.4
5,HMNMRVLSEQPNKKSYQDGNLRLKVFGASFKKSDILNEALNQARVEETGLQIPKLLEVKQIDGQWTIVTE,-0.0363
6,HMNMVSGHLQVKKGYYYAVLSFYDSKNKRHVKYISTGLPEKGNKRKAEAELVKIRNAFEPPAE,-0.338
7,HMNNESEGAIMLRQYSSLSAYLTKYNIDVNSKKAQQYASSLKLAQEKGSAEGQKYLSSISSELDD,-0.158
8,HMNNIIEQIKADIKKLEEKLDKSSENALNKLEKDYSSLSTESKKKLDDAGYGARIKALRVKFAALSTQ,0.0666
9,HMNNISKKIKELREQNNITQNKLANDLFIKQQTVAQWENGSRALKADSIISLAKYFNVSTDYLLGLTEN,-0.339
10,HMNNLKTKELSKIGYTNDKARSLVISIIPKHFKYHSKSEIIELLTNIKNKPEDYVSDEILGKIAETFMEKI,-0.215
11,HMNNLSEELNVTFPRTRDQLLNILHYVQHKYGYISKVSMQEIGNHIKMPVSEIYGTVTSYSEFKI,-1.54
12,HMNNLTEEAINHLVLEVKNVLLTDALFLGKATDSQLMLRIKETIDQRNGQYNIGMNDRERIARRVFARLR,-0.189
13,HMNNLVGKTKVLKSNTNIYAYKTMSGKFYSYLPNTRVRVLQDLGYINYIEVIATKRRGYVYENVY,-0.0937
14,HMNNNIFVYPNPSINYINIDSDEEIWKLEIIQMSGEKINILPFSKRIDISFLSKGLYILNFNNYYIKFIK,-0.187
15,HMNNQIFGLKFRQLRKQQHITLAKAAAGITSRQSLGNWETGKGELAFEKVLLLLKKINVQPIDFLESSIS,-3.67
16,HMNNQILYERLRDLRERNHFTQAFVSSKLNIGRATYSNYERGKRTPSLDVIMDLASFYKVPFTYF,-0.0166
17,HMNNQMTFSKFLNEVDAGRVVEVEIQGNNIKGVLADGNRFNTFSPNYPNLVEKLSDKGVSITAAPK,0.0484
18,HMNPASVLDGLKITSFSPTRAIVAGPGGSRIVFDNEAVVLGGIEWDVHIQRNGIEFTSQGQTVLLLFDRS,-1.21
19,HMNPDDEMLLTYLTKLLVDKQFIVNSNDIFEYILRRVDRTYDGIYDIVSKLDVLSLEKKRQLTIPLIKEI,0.0226
20,HMNPETIHNDYKAFIKFAFSGLSYYSKVWNQNREMITPGLLETLWQKYRHLSIGEIETILEKIIKEG,-1.88
21,HMNPGNTESFPVYQKRLGEIIQTLAGKKGQDINSPEVKELVGEYDFLTKQMFQLPDATSMVMEIATAYRN,0.0462
22,HMNPKTELMVYLKKRDEWVASQILSDVLQVSTRTIRKFVKEINMDYQTENVILSSSKGYKLNQNLLSSL,-1.2
23,HMNPLPALLRYFRQKAGLTQQDVAAALSISRSGYANYEEGRNIPNIEQAIKLSELLNHDFLYAYTLSS,-1.99

row,Sequence,soluble fraction (log2)
1,HMNPNYIKKLREKNQLTQEYLAAQIGVSRPTYAQIEQGQRGLTVTEAKKMADIFSLALDDFLAEKN,0.0013
2,HMNPSIALHDWLQSSEFKGSINLFAAALGMNPRTVEAWVYGRSTPSRRFWAKLYQITNLSRFRL,-0.836
3,HMNPYLWQRVRLLFSNVGVINNSATVDLVFSAPKGVLTEDLANNFSAALVKKGKEELGLDDIKITISVIPN,-2.94
4,HMNQADNFNSLTKREKDVLLLVTQGESNKSIADKLVLSEVTVKSHLNSIFKKLNVTNRTQAVLVAMQMNLV,0.03
5,HMNQAIIVPDVKGLPLEEATTFFENNDLRYTVIDSVYTKDVPPGAIYEMVPGAGSKVKEGRIIFVTLNAR,-0.314
6,HMNQASLTYSEFIANVESKAITRVTISGDTISGILADGKPFQTIYPMADLELLPILRRSGVDINVKEVQ,-0.117
7,HMNQEIELLLREPDFTSAARLAMAINERFTNSARAIDPTSVKVRMPEGLDQASVDFVARLEDIEMSPDT,-0.0281
8,HMNQEQQSAVMSALKATLPDLEAALEARQFKESKQLLKTAQNQFQQLDGRNRRGFQARIQLLAGQFRELS,-0.227
9,HMNQIDDADRKRVVDEVAGQFSSMSLTEMRSDREKLLSRIIPQVQTTLNRLGLQTIDVEGIAREVIARVG,0.159
10,HMNQIFAPMPGLVLEVKLSEGDVVAEGESAIILEAMKMENIIKSPINGIVKKVHVKKGQTIEKNTLIISFK,-1.15
11,HMNQLSYTERRVLQVIEGGTTKTGEIEQALAAKMSRPTVHRALDALVGANRIHRLARGEYALGPAP,-0.147
12,HMNQRQKQLLSILEQQGDWMKGKALATLLAVSDRTIRSDIEKINREVEGSILSHPHKGYLLSVENRQIAET,0.256
13,HMNQSKYQTIADELKSKILSGEYPENTTIPPELQLQKDYQVSRHTIRQAIALLANEGFLRKEKGSGTYVDV,0.0512
14,HMNQTTYTVLYSGMDPADTGKVLTALNEMGVDARTQGEDTVLVPADRADEIRLELAAQGYPTS,0.0864
15,HMNQYIFVLNEKGARITSFVDNTIPKEELIALAKQDYPNAADYIYSADGDSMLDEFMRGKLYVNGQFVAA,-0.69
16,HMNREIVVYITGAVDNPGLYRLPLDSRLDDVLKLAVLSTNADREVLNPAQKLKDGQKIVVPYIVE,-0.111
17,HMNRGITVIVNNEEIKMKEKAQYVVVDIFDYIDFDLTVPKGSINITLNGENTPYTASIKDGDVIEVFW,-0.266
18,HMNRIARRELMEQLFADNKITTQEQLQQLLRAEGVEVTQATISRDMRILNIVKVSDQNGNTYYKQMK,-0.15
19,HMNRIEMTEPIIIKDLSRETGIPWVAIQKRLAQDGIMANINTTIEAEKAQLIAVDYGIELAVV,0.0679
20,HMNRIGERIKRKRELRNLNLGELAEKVGISASALSQIEKSKSFPSVITLKSIAEQLRTTVGELIGEN,0.0607
21,HMNRIKIYPTPGSKVLSIENINFSLIHDFKILDIFGREVKNFTVSSEKNTKMLVDTSKLSDGLYFIFFNTF,-0.58
22,HMNRLEFLQGLKAELEGRVPHSIIQENLRYYDSYISDEAAKGQSEEDVVESLGGPRIIARTIVDAA,0.134
